The numbers were not newly measured in paper PMC3781210, which cites them from elsewhere.

Where two headings read alike, the source gives them in different places.

For data set [1], the target named is Beclin 1 (Homo sapiens) (UniProt Q14457).
Data set [2] shares this target. The source holds these as a separate data set.
For data set [3] the target is unchanged. The source holds these as a separate data set.

UniProt Q14457, sequence (Q14457 150-450): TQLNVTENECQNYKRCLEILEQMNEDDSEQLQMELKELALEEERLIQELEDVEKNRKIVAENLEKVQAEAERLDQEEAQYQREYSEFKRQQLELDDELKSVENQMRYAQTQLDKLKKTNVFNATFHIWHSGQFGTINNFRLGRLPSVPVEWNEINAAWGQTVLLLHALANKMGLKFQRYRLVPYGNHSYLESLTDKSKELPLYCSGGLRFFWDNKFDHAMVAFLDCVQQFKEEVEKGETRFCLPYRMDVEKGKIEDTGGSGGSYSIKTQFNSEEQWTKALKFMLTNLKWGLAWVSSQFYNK

In general, Kd refers to the equilibrium constant for the complex coming apart. Consider Bcl-XL (from UniProt Q07817), for which the dissociation constant (Kd) in data set [1] was 1700 nM. Consider vBcl-2 (from UniProt P89884), for which the Kd in data set [2] was 40 nM.

Consider Bcl-2 (from UniProt P10415), for which, in data set [3], the Kd was 1700 nM.
